Results as given in article doi:10.1101/2024.03.03.583237 (bioRxiv, 2024).

Molecular target: SARS-CoV-2 spike trimer (soluble S-trimer) (SARS-CoV-2 Wuhan-Hu-1 (NC_045512), UniProt P0DTC2)
Assay: live-cell binding assay

B1: S2L20-CVR (scFv, V domains shown)
VH: EVQLVESGGGVVQPGGSLRLSCAASGFTFNSYGMHWVRQAPGKGLEWVAFIRYDGGNKYYADSVKGRFTISRDNSKNTLYLQMKSLRAEDTAVYYCANLKDSRYSGSYYDYWGQGTLVTVS
VL: not shown
binding result: binds
